Test results from article doi:10.1101/850305 (bioRxiv, 2019).

Molecular target: the molecule itself
Test: crystal structure

B1: E. coli LpxA UDP-N-acetylglucosamine acyltransferase (enzyme, UniProt P0A722 1-262, looked up)
chain: MIDKSAFVHPTAIVEEGASIGANAHIGPFCIVGPHVEIGEGTVLKSHVVVNGHTKIGRDNEIYQFASIGEVNQDLKYAGEPTRVEIGDRNRIRESVTIHRGTVQGGGLTKVGSDNLLMINAHIAHDCTVGNRCILANNATLAGHVSVDDFAIIGGMTAVHQFCIIGAHVMVGGCSGVAQDVPPYVIAQGNHATPFGVNIEGLKRRGFSREAITAIRNAYKLIYRSGKTLDEVKPEIAELAETYPEVKAFTDFFARSTRGLIR
In the case of B1, the “stoichiometry N” value is reported as 3.
